The test has as its target T1, dynein intermediate chain (DIC), Q13409.
T1 chain: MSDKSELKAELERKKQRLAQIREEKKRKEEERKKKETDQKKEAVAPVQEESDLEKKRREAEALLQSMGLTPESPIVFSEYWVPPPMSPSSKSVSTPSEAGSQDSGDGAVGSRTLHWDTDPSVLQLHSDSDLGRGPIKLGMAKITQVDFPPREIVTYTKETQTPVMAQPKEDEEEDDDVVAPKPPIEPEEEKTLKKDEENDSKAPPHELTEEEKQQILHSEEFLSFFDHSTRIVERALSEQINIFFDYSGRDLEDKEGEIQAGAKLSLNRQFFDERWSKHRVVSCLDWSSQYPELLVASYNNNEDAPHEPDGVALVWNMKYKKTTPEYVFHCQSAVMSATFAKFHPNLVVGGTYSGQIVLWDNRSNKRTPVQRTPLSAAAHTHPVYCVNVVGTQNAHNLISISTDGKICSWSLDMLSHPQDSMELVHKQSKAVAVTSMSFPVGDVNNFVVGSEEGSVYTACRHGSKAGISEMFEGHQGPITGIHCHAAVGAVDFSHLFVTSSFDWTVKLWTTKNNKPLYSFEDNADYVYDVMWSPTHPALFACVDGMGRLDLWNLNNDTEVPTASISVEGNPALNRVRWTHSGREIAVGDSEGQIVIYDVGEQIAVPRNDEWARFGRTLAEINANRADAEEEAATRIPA
The test is described as follows: MBP pull-down from HEK293T cell lysate, immunoblot, band intensity quantified. Particulars: chain shown with the change; n = 3; parent: est. 0.46; read off a plot. In general terms: In western blotting, separated proteins are transferred to a membrane and probed.

B1: MBP-tagged Hook2 Hook+CC1 (N427) WT, Q96ED9 I150A (protein)
chain: MSVDKAELCGSLLTWLQTFHVPSPCASPQDLSSGLAVAYVLNQIDPSWFNEAWLQGISEDPGPNWKLKVSNLKMVLRSLVEYSQDVLAHPVSEEHLPDVSLIGEFSDPAELGKLLQLVLGCAISCEKKQDHIQRIMTLEESVQHVVMEAAQELMTKDTPDSLSPETYGNFDSQSRRYYFLSEEAEEGDELQQRCLDLERQLMLLSEEKQSLAQENAGLRERMGRPEGEGTPGLTAKKLLLLQSQLEQLQEENFRLESGREDERLRCAELEREVAELQHRNQALTSLAQEAQALKDEMDELRQSSERAGQLEATLTSCRRRLGELRELRRQVRQLEERNAGHAERTRQLEDELRRAGSLRAQLEAQRRQVQELQGQRQEEAMKAEKWLFECRNLEEKYESVTKEKERLLAERDSLREANEELRCAQLQ
On to B1, for which the response (Pulldown/Input) is 0.02.

B2: MBP-tagged Hook2 Hook+CC1 (N427) WT, Q96ED9 Q143A (protein)
chain: MSVDKAELCGSLLTWLQTFHVPSPCASPQDLSSGLAVAYVLNQIDPSWFNEAWLQGISEDPGPNWKLKVSNLKMVLRSLVEYSQDVLAHPVSEEHLPDVSLIGEFSDPAELGKLLQLVLGCAISCEKKQDHIQRIMTLEESVAHVVMEAIQELMTKDTPDSLSPETYGNFDSQSRRYYFLSEEAEEGDELQQRCLDLERQLMLLSEEKQSLAQENAGLRERMGRPEGEGTPGLTAKKLLLLQSQLEQLQEENFRLESGREDERLRCAELEREVAELQHRNQALTSLAQEAQALKDEMDELRQSSERAGQLEATLTSCRRRLGELRELRRQVRQLEERNAGHAERTRQLEDELRRAGSLRAQLEAQRRQVQELQGQRQEEAMKAEKWLFECRNLEEKYESVTKEKERLLAERDSLREANEELRCAQLQ
Turning to B2, the response (Pulldown/Input) came out at 0.02.

(Values after publication PMC6400558 (2019).)
